Test results published in article PMC3610751.

What was measured:
[1] = system: NP isolated from virus (Influenza A virus (strain for filter assay not stated; A/PR/8/34 used for MS)); test: filter binding; conditions: running buffer with 300 mM NaCl and 0.025% P20, 25 C, conditions not given
[2] = system: wt NP, recombinant (filter binding) (Influenza A virus (A/WSN/33, H1N1)); test: filter binding; conditions: running buffer with 300 mM NaCl and 0.025% P20, 25 C, conditions not given
[3] = target: wild type nucleoprotein of influenza A virus H1N1 strain A/WSN/33 (influenza A virus H1N1 strain A/WSN/33); test: crystal structure

81 nt panhandle RNA
Kd [1]: 30 nM | Kd [2]: 30 nM

wild type nucleoprotein of influenza A virus H1N1 strain A/WSN/33 (natural protein)
stoichiometry N [3]: 3
